From publication PMC9366794 (ACS Omega, 2022)
Ends that are not written are not given here.

What was measured:
male mice = settings: icv, 5 μg, at 4, 6, and 24 h; cited from earlier work
[1] = test system: wildtype, MC4R KO, and MC3R KO mice; settings: significant out to at least 7 days post-administration; cited from earlier work
[2] = target: mouse melanocortin-3 receptor (mouse) (UniProt P33033)
[3] = target: mouse melanocortin-1 receptor (mouse) (UniProt Q01727)
[4] = target: mouse melanocortin-5 receptor (mouse) (UniProt P41149)
MC4R KO mice = MC4R KO mice (intact MC3R); cited from earlier work
[5] = target: mouse melanocortin-4 receptor (mouse) (UniProt P56450)
Sequence of UniProt P56450 (P56450 whole entry): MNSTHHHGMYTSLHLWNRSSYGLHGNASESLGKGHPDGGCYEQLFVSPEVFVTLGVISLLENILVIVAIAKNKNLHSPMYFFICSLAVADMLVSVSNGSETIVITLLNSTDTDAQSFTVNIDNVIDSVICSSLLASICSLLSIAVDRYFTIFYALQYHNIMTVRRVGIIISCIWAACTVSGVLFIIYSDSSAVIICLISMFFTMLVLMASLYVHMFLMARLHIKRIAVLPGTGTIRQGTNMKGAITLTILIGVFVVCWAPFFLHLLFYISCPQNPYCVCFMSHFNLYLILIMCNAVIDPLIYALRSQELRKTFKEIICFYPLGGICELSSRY

Sequence of UniProt P33033 (P33033 whole entry): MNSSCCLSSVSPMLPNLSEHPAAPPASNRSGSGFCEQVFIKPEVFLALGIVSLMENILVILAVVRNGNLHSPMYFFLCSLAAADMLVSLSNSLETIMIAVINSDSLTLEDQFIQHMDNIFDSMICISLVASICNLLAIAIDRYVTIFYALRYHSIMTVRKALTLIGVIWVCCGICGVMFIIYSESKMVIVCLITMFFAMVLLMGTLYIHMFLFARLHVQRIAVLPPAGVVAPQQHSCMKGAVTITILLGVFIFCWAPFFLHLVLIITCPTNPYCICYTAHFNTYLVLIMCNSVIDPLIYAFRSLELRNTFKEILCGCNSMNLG
Sequence of UniProt Q01727 (Q01727 whole entry): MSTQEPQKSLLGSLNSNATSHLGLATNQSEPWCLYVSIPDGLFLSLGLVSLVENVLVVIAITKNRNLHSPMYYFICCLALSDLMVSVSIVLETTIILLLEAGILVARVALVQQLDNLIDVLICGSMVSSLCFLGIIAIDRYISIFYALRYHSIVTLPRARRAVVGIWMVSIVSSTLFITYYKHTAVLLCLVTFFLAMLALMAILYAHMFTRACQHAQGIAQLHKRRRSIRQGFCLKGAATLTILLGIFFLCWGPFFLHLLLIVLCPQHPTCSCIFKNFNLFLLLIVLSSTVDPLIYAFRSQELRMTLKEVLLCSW
Sequence of UniProt P41149 (P41149 whole entry): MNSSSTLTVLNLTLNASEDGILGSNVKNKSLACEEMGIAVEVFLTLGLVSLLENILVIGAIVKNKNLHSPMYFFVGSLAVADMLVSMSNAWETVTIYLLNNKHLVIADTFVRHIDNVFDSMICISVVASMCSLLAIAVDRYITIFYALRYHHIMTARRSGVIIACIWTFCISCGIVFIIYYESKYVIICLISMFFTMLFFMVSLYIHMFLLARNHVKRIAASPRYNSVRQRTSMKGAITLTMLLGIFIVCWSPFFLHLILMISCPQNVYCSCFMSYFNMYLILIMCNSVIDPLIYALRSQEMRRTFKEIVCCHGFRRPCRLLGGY

Compound: CC(=O)N[C@@H](CCCNC(=N)N)C(=O)N[C@@H](CCCNC(=N)N)C(=O)N[C@H](Cc1ccc(I)cc1)C(=O)N1Cc2ccccc2C[C@H]1C(N)=O [compound 1, Ac-Arg-Arg-(pI)DPhe-Tic-NH2]
- food intake versus artificial cerebrospinal fluid vehicle (male mice): statistically significant increase in food intake

Compound: AGRP: naturally occurring MC3R/MC4R antagonist agouti-related protein (SSRRCVRLHESCLGQQVPCCDPCATCYCRFFNAFCYCRKLGTAMNPCSRT; ends and bridges not checked; cysteine pairing not given here; UniProt O00253 83-132, looked up)
- food intake compared to saline injection [1]: dose-dependent increase in food intake

Compound: Ac-Arg-Arg-(pI)DPhe-Tic-NH2 (peptide)
- agonist EC50, cAMP AlphaScreen, HEK293 cells stably expressing mMC3R [2]: 10 nM
- agonist EC50, cAMP AlphaScreen, HEK293 cells stably expressing mMC1R [3]: 0.18 nM
- agonist EC50, cAMP AlphaScreen, HEK293 cells stably expressing mMC5R [4]: 7 nM

Compound: Ac-Arg-Arg-(pI)DPhe-Wrf-NH2 (peptide)
- agonist EC50, cAMP AlphaScreen, HEK293 cells stably expressing mMC3R [2]: 570 nM
- agonist EC50, cAMP AlphaScreen, HEK293 cells stably expressing mMC1R [3]: 380 nM
- agonist EC50, cAMP AlphaScreen, HEK293 cells stably expressing mMC5R [4]: 240 nM

Compound: Ac-Arg-Arg-(pI)DPhe-wsf-NH2 (peptide)
- agonist EC50, cAMP AlphaScreen, HEK293 cells stably expressing mMC1R [3]: 210 nM
- agonist EC50, cAMP AlphaScreen, HEK293 cells stably expressing mMC5R [4]: 650 nM

Compound: Ac-Arg-Arg-wsf-Tic-NH2 (peptide)
- agonist EC50, cAMP AlphaScreen, HEK293 cells stably expressing mMC5R [4]: 350 nM

Compound: Ac-His-DPhe-Arg-Trp-NH2
- food intake in MC4R KO mice (MC4R KO mice): decrease in food intake

Compound: MTII
- food intake in MC4R KO mice (MC4R KO mice): decrease in food intake

Compound: NDP-MSH (peptide)
- agonist EC50, cAMP AlphaScreen, HEK293 cells stably expressing mMC4R [5]: 0.68 nM
- agonist EC50, cAMP AlphaScreen, HEK293 cells stably expressing mMC3R [2]: 0.16 nM
- agonist EC50, cAMP AlphaScreen, HEK293 cells stably expressing mMC1R [3]: 0.013 nM
- agonist EC50, cAMP AlphaScreen, HEK293 cells stably expressing mMC5R [4]: 0.26 nM
